# Several values for one entry are separate records, joined by “and”; a condition that tells them apart may be missing. Equal values may be shown once.
# T1: BMP-12 (Homo sapiens, UniProt Q7Z4P5)
# T1 sequence (Q7Z4P5 322-450): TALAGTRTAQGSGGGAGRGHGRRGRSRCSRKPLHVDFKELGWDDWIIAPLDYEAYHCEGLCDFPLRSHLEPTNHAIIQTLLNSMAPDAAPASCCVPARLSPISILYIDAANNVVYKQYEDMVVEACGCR
# Tests used:
# [1] = BMP solubility screen: A320 turbidity of BMP-12 solutions; type: physicochemical; details: 50 mM Tris pH 8, 0.5 mg/mL BMP-12
# Description: BMP Solubility Screen—A Tecan liquid-handling robot was used to mix a master plate of reagents, 800 μL×1.25 concentration (for each solution; see Tables 2 and 3), each in 50 mM Tris buffer at pH 8. An eight-channel pipettor was used to transfer 80 μL of material from the master plate into a half-area UV microplate, from which A320 was read from each sample to define a blank. A repeat-pipettor was used to add 20 μL of 2.5 mg/mL BMP-12 in 0.1% TFA to make a 0.5 mg/mL solution, which was then agitated at 14000 rpm. The UV absorption (A320) was read and the blank absorption subtracted to determine solubility. The procedure was repeated with a wider range of 2-methyl-2,4-pentanediol (MPD) concentrations and a finer set of salt concentrations (Table 4).
# BMP-12 = target: T1, BMP-12; assay: Affinity column chromatography, capture and elution of BMP-12; type: binding
# Description: BMP-12 was immobilized on NHS-activated Sepharose™ beads at a ratio of about 20 mg:4 mL and the resulting media combined with water or neutral saline buffer to prepare a column. CHO-conditioned media augmented with 1.2 M NaCl was loaded onto the column. In some cases, the media was preconcentrated with respect to BMP before loading. The column was washed with 15 CV (column volumes) of 1.2 M NaCl in 40 mM Na2HPO4 at pH 7.2, followed by 0.5 M arginine/0.5 M NaCl in 20 mM Tris at pH 7.5 (15 CV) and a low salt wash (50 mM ammonium acetate at pH 7, 15 CV). […] Finally, the column was eluted with 5CV of the acetic acid solution with 6M guanidine hydrochloride (GuHCl).
# BMP-12 was loaded and eluted from a BMP-12 affinity column as in Example 1.
# BMP-12 was purified using a column prepared with the BMP-12 wild type peptide described in Example 7.
# BMP-3 and BMP-12 = assay: HPLC columns of BMP affinity resins loaded with BMP-3 and BMP-12; type: binding; details: columns loaded with BMP-3 and BMP-12
# From the text: These columns were used loaded with BMP-3 and BMP-12. […] In some cases, size exclusion or reverse phase chromatography techniques were employed to enhance purification.
molecule,measurement,setting,value
"BMP-12: Bone Morphogenic Protein, member of the TGF-β superfamily; tested in solution and immobilized on Sepharose beads as affinity ligand (protein) TALAGTRTAQGSGGGAGRGHGRRGRSRCSRKPLHVDFKELGWDDWIIAPLDYEAYHCEGLCDFPLRSHLEPTNHAIIQTLLNSMAPDAAPASCCVPARLSPISILYIDAANNVVYKQYEDMVVEACGCR",A320 minus blank (turbidity),"[1]; NaCl 0.5 M, 2-methyl-2,4-pentanediol 5%",2.414
same,A320 minus blank (turbidity),"[1]; NaCl 0.5 M, 2-methyl-2,4-pentanediol 10%",2.258
same,A320 minus blank (turbidity),"[1]; NaCl 0.5 M, 2-methyl-2,4-pentanediol 15%",1.420
same,A320 minus blank (turbidity),"[1]; NaCl 0.5 M, 2-methyl-2,4-pentanediol 20%",0.165
same,A320 minus blank (turbidity),"[1]; NaCl 0.5 M, 2-methyl-2,4-pentanediol 25%",0.020 and 0.038
same,A320 minus blank (turbidity),"[1]; NaCl 0.50 M, 2-methyl-2,4-pentanediol 30%",−0.091
same,A320 minus blank (turbidity),"[1]; NaCl 0.50 M, 2-methyl-2,4-pentanediol 35%",0.026
same,A320 minus blank (turbidity),"[1]; NaCl 0.50 M, 2-methyl-2,4-pentanediol 40%",0.024
same,A320 minus blank (turbidity),"[1]; NaCl 0.50 M, 2-methyl-2,4-pentanediol 45%",−0.008
same,A320 minus blank (turbidity),"[1]; NaCl 0.75 M, 1-propanol 0%",1.911
same,A320 minus blank (turbidity),"[1]; NaCl 0.75 M, 1-propanol 2.5%",2.023
same,A320 minus blank (turbidity),"[1]; NaCl 0.75 M, 1-propanol 5%",1.541
same,A320 minus blank (turbidity),"[1]; NaCl 0.75 M, 1-propanol 10%",1.032
same,A320 minus blank (turbidity),"[1]; NaCl 0.75 M, 1-propanol 15%",0.094
same,A320 minus blank (turbidity),"[1]; NaCl 0.75 M, 1-propanol 25%",−0.003
same,A320 minus blank (turbidity),"[1]; NaCl 0.75 M, 2-methyl-2,4-pentanediol 2.5%",1.985
same,A320 minus blank (turbidity),"[1]; NaCl 0.75 M, 2-methyl-2,4-pentanediol 5%",2.076
same,A320 minus blank (turbidity),"[1]; NaCl 0.75 M, 2-methyl-2,4-pentanediol 10%",2.211
same,A320 minus blank (turbidity),"[1]; NaCl 0.75 M, 2-methyl-2,4-pentanediol 15%",0.818
same,A320 minus blank (turbidity),"[1]; NaCl 0.75 M, 2-methyl-2,4-pentanediol 20%",0.099
same,A320 minus blank (turbidity),"[1]; NaCl 0.75 M, 2-methyl-2,4-pentanediol 25%",0.001
same,A320 minus blank (turbidity),"[1]; NaCl 1 M, 1-propanol 0%",1.988
same,A320 minus blank (turbidity),"[1]; NaCl 1 M, 1-propanol 2.5%",1.601
same,A320 minus blank (turbidity),"[1]; NaCl 1 M, 1-propanol 5%",1.817
same,A320 minus blank (turbidity),"[1]; NaCl 1 M, 1-propanol 10%",1.000
same,A320 minus blank (turbidity),"[1]; NaCl 1 M, 1-propanol 15%",0.040
same,A320 minus blank (turbidity),"[1]; NaCl 1 M, 1-propanol 25%",−0.010
same,A320 minus blank (turbidity),"[1]; NaCl 1 M, 2-methyl-2,4-pentanediol 2.5%",2.133
same,A320 minus blank (turbidity),"[1]; NaCl 1 M, 2-methyl-2,4-pentanediol 5%",1.903
same,A320 minus blank (turbidity),"[1]; NaCl 1 M, 2-methyl-2,4-pentanediol 10%",2.110
same,A320 minus blank (turbidity),"[1]; NaCl 1 M, 2-methyl-2,4-pentanediol 15%",0.400
same,A320 minus blank (turbidity),"[1]; NaCl 1 M, 2-methyl-2,4-pentanediol 20%",0.089
same,A320 minus blank (turbidity),"[1]; NaCl 1 M, 2-methyl-2,4-pentanediol 25%",−0.015
same,A320 minus blank (turbidity),"[1]; NaCl 1.25 M, 1-propanol 0%",1.702
same,A320 minus blank (turbidity),"[1]; NaCl 1.25 M, 1-propanol 2.5%",1.376
same,A320 minus blank (turbidity),"[1]; NaCl 1.25 M, 1-propanol 5%",1.643
same,A320 minus blank (turbidity),"[1]; NaCl 1.25 M, 1-propanol 10%",1.018
same,A320 minus blank (turbidity),"[1]; NaCl 1.25 M, 1-propanol 15%",0.033
same,A320 minus blank (turbidity),"[1]; NaCl 1.25 M, 1-propanol 25%",0.022
same,A320 minus blank (turbidity),"[1]; NaCl 1.25 M, 2-methyl-2,4-pentanediol 2.5%",1.819
same,A320 minus blank (turbidity),"[1]; NaCl 1.25 M, 2-methyl-2,4-pentanediol 5%",1.643
same,A320 minus blank (turbidity),"[1]; NaCl 1.25 M, 2-methyl-2,4-pentanediol 10%",1.688
same,A320 minus blank (turbidity),"[1]; NaCl 1.25 M, 2-methyl-2,4-pentanediol 15%",0.257
same,A320 minus blank (turbidity),"[1]; NaCl 1.25 M, 2-methyl-2,4-pentanediol 20%",0.040
same,A320 minus blank (turbidity),"[1]; NaCl 1.25 M, 2-methyl-2,4-pentanediol 25%",−0.011
same,A320 minus blank (turbidity),"[1]; NaCl 1.5 M, 1-propanol 0%",1.981
same,A320 minus blank (turbidity),"[1]; NaCl 1.5 M, 1-propanol 2.5%",1.358
same,A320 minus blank (turbidity),"[1]; NaCl 1.5 M, 1-propanol 5%",1.598
same,A320 minus blank (turbidity),"[1]; NaCl 1.5 M, 1-propanol 10%",0.973
same,A320 minus blank (turbidity),"[1]; NaCl 1.5 M, 1-propanol 15%",0.036
same,A320 minus blank (turbidity),"[1]; NaCl 1.5 M, 1-propanol 25%",0.478
same,A320 minus blank (turbidity),"[1]; NaCl 1.5 M, 2-methyl-2,4-pentanediol 2.5%",1.767
same,A320 minus blank (turbidity),"[1]; NaCl 1.5 M, 2-methyl-2,4-pentanediol 5%",1.521
same,A320 minus blank (turbidity),"[1]; NaCl 1.5 M, 2-methyl-2,4-pentanediol 10%",1.798
same,A320 minus blank (turbidity),"[1]; NaCl 1.5 M, 2-methyl-2,4-pentanediol 15%",0.227
same,A320 minus blank (turbidity),"[1]; NaCl 1.5 M, 2-methyl-2,4-pentanediol 20%",0.045
same,A320 minus blank (turbidity),"[1]; NaCl 1.5 M, 2-methyl-2,4-pentanediol 25%",0.003
same,capture of BMP-12 by column with immobilized ligand,BMP-12; high salt / high ionic strength load,effectively captured
same,elution of BMP-12 from column with immobilized ligand,"BMP-12; washes, then gradient to 50 mM acetic acid pH 3, then 6M GuHCl",eluted with acetic acid and guanidine
same,effectiveness as affinity ligand for reverse phase HPLC,BMP-3 and BMP-12,equally effective
